Positions count from the first letter of the chain named. Names and notes keep the numbering of the source.
T1: GST-fused full length Ppz1 (S. cerevisiae, UniProt P26570 1-692)
T1 construct: Ser/Thr protein phosphatase Ppz1, S. cerevisiae, full length; also called GST-Ppz1; source: E. coli BL21 (DE3) RIL, purified on glutathione-agarose
T1 sequence (looked up): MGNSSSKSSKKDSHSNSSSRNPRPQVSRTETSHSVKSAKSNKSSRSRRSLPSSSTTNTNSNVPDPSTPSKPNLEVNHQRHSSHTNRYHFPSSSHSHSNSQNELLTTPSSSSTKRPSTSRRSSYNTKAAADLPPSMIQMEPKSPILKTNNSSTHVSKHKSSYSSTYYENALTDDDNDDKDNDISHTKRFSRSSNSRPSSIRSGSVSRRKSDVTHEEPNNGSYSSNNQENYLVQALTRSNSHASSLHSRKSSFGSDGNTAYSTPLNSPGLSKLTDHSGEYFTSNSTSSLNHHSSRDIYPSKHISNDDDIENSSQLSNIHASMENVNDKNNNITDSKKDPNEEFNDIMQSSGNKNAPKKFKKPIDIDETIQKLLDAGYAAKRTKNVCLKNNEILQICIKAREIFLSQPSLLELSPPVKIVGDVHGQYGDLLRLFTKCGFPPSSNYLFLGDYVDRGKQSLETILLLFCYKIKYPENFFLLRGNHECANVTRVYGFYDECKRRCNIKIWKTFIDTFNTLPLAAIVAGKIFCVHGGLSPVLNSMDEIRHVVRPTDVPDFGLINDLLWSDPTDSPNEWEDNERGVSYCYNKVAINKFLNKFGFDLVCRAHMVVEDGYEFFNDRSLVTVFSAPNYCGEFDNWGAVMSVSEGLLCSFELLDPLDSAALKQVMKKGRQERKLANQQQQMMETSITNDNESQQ

B1: ScHal3 L403N, recombinant, GST removed (natural protein, S. cerevisiae, UniProt P36024 1-562, looked up)
chain: MTAVASTSGKQDADHNQSIECPRFSRGQKEILLDHEDAKGKDSIINSPVSGRQSISPTLSNATTTTTKSIMNATGTSGAVVSNTPEPGLKRVPAVTFSDLKQQQKQDSLTQLKNDSERTKSPNSNPAPVSNSIPGNHAVIPNHTNTSRTTQLSGSPLVNEMKDYDPKKKDSALKIVDTMKPDKIMATSTPISRENNKVTAKAPTSITLRKEDAQDQANNVSGQINVRSTPEETPVKQSVIPSIIPKRENSKNLDPRLPQDDGKLHVLFGATGSLSVFKIKPMIKKLEEIYGRDRISIQVILTQSATQFFEQRYTKKIIKSSEKLNKMSQYESTPATPVTPTPGQCNMAQVVELPPHIQLWTDQDEWDAWKQRTDPVLHIELRRWADILVVAPLTANTLSKIANGLCDNLLTSVIRAWNPSYPILLAPSMVSSTFNSMMTKKQLQTIKEEMSWVTVFKPSEKVMDINGDIGLGGMMDWNEIVNKIVMKLGGYPKNNEEEDDDEDEEEDDDEEEDTEDKNENNNDDDDDDDDDDDDDDDDDDDDDDDDEDEDEAETPGIIDKHQ
notes: Hal3 (Sis2), S. cerevisiae, in pGEX-6P-1 with L403N; also called the L403 variant; source: E. coli BL21 (DE3) RIL, GST fusion purified on glutathione-agarose, GST cleaved with PreScission protease
B2: S. cerevisiae Hal3 (ScHal3), native, recombinant, GST removed (natural protein, UniProt P36024 1-562, looked up)
chain: B1 chain with N403L
notes: the methods speak of 'each full-length recombinant protein' and the predicted homotrimer is ~190 kDa; also called native ScHal3; WT; source: E. coli BL21 (DE3) RIL, GST fusion purified on glutathione-agarose, GST cleaved with PreScission protease
B3: Arabidopsis thaliana Hal3 (AtHal3a), native, recombinant, GST removed (enzyme, UniProt Q9SWE5 1-209, looked up)
chain: MENGKRDRQDMEVNTTPRKPRVLLAASGSVAAIKFGNLCHCFTEWAEVRAVVTKSSLHFLDKLSLPQEVTLYTDEDEWSSWNKIGDPVLHIELRRWADVLVIAPLSANTLGKIAGGLCDNLLTCIIRAWDYTKPLFVAPAMNTLMWNNPFTERHLLSLDELGITLIPPIKKRLACGDYGNGAMAEPSLIYSTVRLFWESQAHQQTGGTS
notes: AtHal3a, Arabidopsis thaliana, wild type ORF amplified from the AtHal3a cDNA and cloned into pGEX-6P-1; Flavoprotein (FMN); Theoretical mass of the trimer ~69 kDa; also called native AtHal3; source: E. coli BL21 (DE3) RIL, GST fusion purified on glutathione-agarose, GST cleaved with PreScission protease
B4: AtHal3 G115N L117E, recombinant, GST removed (enzyme, Arabidopsis thaliana, UniProt Q9SWE5 1-209, looked up)
chain: B3 chain with G115N, L117E
notes: AtHal3a, Arabidopsis thaliana, ORF in pGEX-6P-1 with G115N and L117E; source: E. coli BL21 (DE3) RIL, GST fusion purified on glutathione-agarose, GST cleaved with PreScission protease
B5: AtHal3 L117E, recombinant, GST removed (enzyme, Arabidopsis thaliana, UniProt Q9SWE5 1-209, looked up)
chain: B3 chain with L117E
notes: AtHal3a, Arabidopsis thaliana, ORF in pGEX-6P-1 with L117E; source: E. coli BL21 (DE3) RIL, GST fusion purified on glutathione-agarose, GST cleaved with PreScission protease
B6: HA-tagged ScHal3 L403N L405E expressed in S. cerevisiae from pWS93 (natural protein, UniProt P36024 1-562, looked up)
chain: B1 chain with L405E
notes: Hal3 (Sis2), S. cerevisiae, with L403N and L405E; insert released from the pGEX construct and cloned into pWS93; also called the double mutated variant; source: S. cerevisiae IM021 (ppz1 hal3), expressed from pWS93, in protein extract
B7: HA-tagged ScHal3 L405E expressed in S. cerevisiae from pWS93 (natural protein, UniProt P36024 1-562, looked up)
chain: B1 chain with N403L, L405E
notes: Hal3 (Sis2), S. cerevisiae, with L405E; insert released from the pGEX construct and cloned into pWS93; source: S. cerevisiae IM021 (ppz1 hal3), expressed from pWS93, in protein extract

Target: the molecule itself
Experiment: cross-linking; purified GST-free proteins (1 or 2 ug) treated with 0.01% glutaraldehyde, SDS-PAGE, Coomassie staining
Settings: not given

**Q.** Which “stoichiometry N” value does the source give for B1 here?
**A.** Its value is 3.

**Q.** With B2 as the binder, how does the “stoichiometry N” value read?
**A.** The value was 3.

**Q.** For B3, which “stoichiometry N” value is on record?
**A.** The value was 3.

**Q.** How did the “stoichiometry N” value turn out when B4 was run?
**A.** The value was 3.

**Q.** For B5, which “stoichiometry N” value is on record?
**A.** Its value is 3.

target: T1, GST-fused full length Ppz1; experiment: pull-down; 4 ug GST-Ppz1 or GST-Ppz1-Cter on glutathione-agarose beads, 600 ug protein extract of IM021 yeast expressing HA-tagged ScHal3 versions, anti-HA immunoblot; signal related to Ponceau-stained bait, native ScHal3 as the unit; settings: one partner purified

**Q.** With B6 as the binder, how does the “interaction relative to native ScHal3” value read?
**A.** Its value is about 50%.

**Q.** For B7, which “interaction relative to native ScHal3” value is on record?
**A.** The value was about 50%.
